Assay in all cases: fluorescence polarisation; competition: unlabelled peptide in serial dilution displaces a FITC-labelled probe peptide from the bait domain (master mix with protein at four times the KD of the probe, 10 nM probe, 2 mM DTT); 50 mM KPO4 or NaPO4 pH 7.5; triplicates; probe for KEAP1 Kelch: FITC-NFE2L1 228-243, other probes in Dataset EV6
Conditions in all cases: both partners purified
(Fluorescence polarisation rises when a labelled molecule tumbles more slowly, as on binding a larger partner.)

Experiment [1] deals with KEAP1 Kelch, MBP‐tagged domain, for affinity measurements (human).
The target in experiment [2] is T1, 14‐3‐3 SFN, tag cleaved, for affinity measurements (human).
T1 chain: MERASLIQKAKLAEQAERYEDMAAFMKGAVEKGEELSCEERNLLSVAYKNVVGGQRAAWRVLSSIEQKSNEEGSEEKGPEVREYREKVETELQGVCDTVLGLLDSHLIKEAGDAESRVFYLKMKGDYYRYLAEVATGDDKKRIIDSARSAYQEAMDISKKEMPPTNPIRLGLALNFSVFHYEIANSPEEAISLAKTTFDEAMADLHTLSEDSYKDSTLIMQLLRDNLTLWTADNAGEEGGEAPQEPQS

The target in experiment [3] is T2, TLN1 PTB, tag cleaved, for affinity measurements (human).
T2 chain: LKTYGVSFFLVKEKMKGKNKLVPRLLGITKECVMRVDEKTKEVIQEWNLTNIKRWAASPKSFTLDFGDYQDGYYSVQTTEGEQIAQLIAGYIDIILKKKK

Sequence of KEAP1 Kelch, MBP‐tagged domain, for affinity measurements (human) (chain, as listed by the source): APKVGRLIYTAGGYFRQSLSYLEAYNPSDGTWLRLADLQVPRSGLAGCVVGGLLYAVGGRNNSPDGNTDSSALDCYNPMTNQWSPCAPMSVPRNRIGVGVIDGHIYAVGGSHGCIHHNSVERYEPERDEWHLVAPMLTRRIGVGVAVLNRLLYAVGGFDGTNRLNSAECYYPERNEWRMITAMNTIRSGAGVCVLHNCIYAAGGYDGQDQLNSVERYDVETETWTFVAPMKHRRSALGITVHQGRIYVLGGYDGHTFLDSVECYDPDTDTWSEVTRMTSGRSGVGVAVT

B1: NFE2L2 E79K peptide, synthetic (peptide)
chain: Ac-YDEKTGEFLPIQPAQH-NH2
With B1, the “fold loss of affinity against the wild-type peptide” value in experiment [1] was found to be 1000 fold.

B2: MAP1A_(1836–1851) peptide, synthetic (peptide)
peptide: PSWLADIPPWVPKDRP
notes: microtubule-associated protein 1A, human, residues 1836-1851; source: synthetic peptide, bought: GeneCust
One may read the Ki as a measure of affinity in units of concentration, obtained from inhibition or displacement. B2 registered a Ki in experiment [2] of 355 µM.

B3: ITB3_(763–778) peptide from integrin beta‐3, synthetic (peptide)
peptide: AKWDTANNPLYKEATS
notes: integrin beta-3, human, residues 763-778; source: synthetic peptide, bought: GeneCust
As to B3, the inhibitory constant (Ki) in experiment [3] was found to be 500 µM.

B4: PTTG1_(4–19) peptide from securin, synthetic (peptide, UniProt O95997 4-19, looked up)
peptide: LIYVDKENGEPGTRVV
notes: securin, human, residues 4-19 (NGE containing); source: synthetic peptide, bought: GeneCust
B4 had an inhibitory constant (Ki) in experiment [1] of 1 µM.

B5: NFE2L2 T80K peptide, synthetic (peptide)
chain: Ac-YDEEKGEFLPIQPAQH-NH2
On to B5, for which the “fold loss of affinity against the wild-type peptide” value in experiment [1] worked out at 1000 fold.
